# Source: article PMC7997048
# Experiments:
# ephrin-B2 (Homo sapiens) = ephrin-B2 (Homo sapiens) (UniProt P52799); settings: cited from earlier work
# [1] = target: ephrin-B2-Fc (extracellular region of murine ephrin-B2, Fc fusion) (murine) (UniProt P52800); assay: BLI; BLItz instrument; Protein-A biosensor loaded with 50 ug/ml purified Fc-tagged ephrin-B2, washed with HBS; EphB6-ECD at 100 nM and 1 uM, association and dissociation 3 min each; apparent Kd
# [2] = target: ephrin-B2-Fc (extracellular region of murine ephrin-B2, Fc fusion) (murine) (UniProt P52800); assay: SEC; Superdex 200 FPLC of the EphB6-ECD/ephrin-B2 complex, micromolar concentration range
# UniProt P52799, sequence (P52799 28-229): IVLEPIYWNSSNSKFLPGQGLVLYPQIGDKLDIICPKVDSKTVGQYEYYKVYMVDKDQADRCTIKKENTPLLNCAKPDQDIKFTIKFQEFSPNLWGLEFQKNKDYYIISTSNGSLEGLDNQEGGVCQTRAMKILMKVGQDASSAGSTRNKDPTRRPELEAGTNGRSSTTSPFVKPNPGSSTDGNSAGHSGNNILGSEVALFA
Substance,Kd (ephrin-B2 (Homo sapiens)) [nM],Kd [1] [nM],stoichiometry N [2]
EphB2 (from UniProt P29323),8.6,–,–
EphB6 receptor ectodomain (EphB6-ECD) (from UniProt O15197 32-594) (domain or fragment),–,88.5,1
